± gives the uncertainty stated by the source.
Experiment: protein stability index of a GFP-peptide fusion (yeast GPS) (PSI 1-4); higher = more stable; sorted into four equal gates, so the index is relative within each strain
Procedure, shortened: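 Each library plasmid carries Cherry plus GFP with a tiled 17-residue yeast protein peptide fused downstream, and the pooled library was carried in yeast. Mid-log cultures in leucine-free medium were sorted into four equal gates by GFP/Cherry ratio. Reads from Illumina sequencing of PCR-amplified plasmids from each gate were assigned to strains by barcodes. Per peptide, the protein stability index was computed as the summed products of gate read frequency and gate number.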

| Sequence | protein stability index (doa10∆) | protein stability index (pdr5∆) | protein stability index (san1∆) | protein stability index (ubr1∆) |
| --- | --- | --- | --- | --- |
| SVPTNSADAPNPNNVNV [RET1] | 3.24 ± 0.084 | 3.14 ± 0.081 | 3.26 ± 0.049 | 3.23 ± 0.058 |
| SVTEIPLKLSGEGPFTV [YMR129W/POM152] | 2.96 ± 0.072 | 3.23 ± 0.079 | 2.78 ± 0.078 | 2.81 ± 0.16 |
| SVVRGNTFKVLSKFFFF [COB] | 2.11 ± 0.065 | 2.2 ± 0.13 | 2.44 ± 0.093 | 1.83 ± 0.069 |
| SWEEGTRQSSRNFDTHE [MCD1] | 3.26 ± 0.12 | 3.59 ± 0.13 | 3.31 ± 0.1 | 3.38 ± 0.15 |
| SYEVEHVIQIPLNKPLL [TAF14] | 2.46 ± 0.069 | 2.66 ± 0.045 | 2.52 ± 0.06 | 2.51 ± 0.055 |
| SYFLQERYFDCCTKFFT [PCI8] | 1.54 ± 0.069 | 1.52 ± 0.059 | 1.76 ± 0.08 | 2.13 ± 0.044 |
| SYHNGNLKGRPYTGWVD [FAS2] | 2.07 ± 0.096 | 3.13 ± 0.1 | 3.08 ± 0.1 | 2.83 ± 0.094 |
| SYIGTIIVKDKSNDSEG [POP1] | 1.4 ± 0.1 | 1.44 ± 0.052 | 1.45 ± 0.093 | 1.35 ± 0.093 |
| SYINVTFRAVVFKPFLG [RPC25] | 1.52 ± 0.084 | 1.95 ± 0.061 | 2.26 ± 0.079 | 1.94 ± 0.056 |
| SYLEERERQVNEKLADL [RPC53] | 3.2 ± 0.14 | 3.42 ± 0.16 | 3.12 ± 0.17 | 3.19 ± 0.23 |
| SYRNGMASYMLNSFAFE [YJR042W/NUP85] | 2.29 ± 0.09 | 2.45 ± 0.11 | 2.6 ± 0.1 | 3.01 ± 0.084 |
| SYVAVLGMGKAVEKTLA [POP7] | 1.75 ± 0.13 | 2.17 ± 0.081 | 1.82 ± 0.11 | 1.61 ± 0.086 |
| SYVETLDSMIELFKDYK [MED1] | 3.24 ± 0.085 | 3.22 ± 0.1 | 3.34 ± 0.052 | 3.19 ± 0.054 |
| SYYGIVCLMQISTRERD [RRP6] | 1.96 ± 0.12 | 1.41 ± 0.081 | 1.21 ± 0.16 | 1.39 ± 0.09 |
| TAASVFKELCYENKDNL [PRE3] | 2.67 ± 0.051 | 2.45 ± 0.047 | 2.38 ± 0.058 | 2.17 ± 0.054 |
| TAFKATVFFLIRVAETR [YJL039C/NUP192] | 1.53 ± 0.087 | 1.22 ± 0.063 | 1.12 ± 0.12 | 1.47 ± 0.048 |
| TAFKSSPFGGSSHAKGI [RPS23A] | 3.02 ± 0.067 | 2.61 ± 0.053 | 3.02 ± 0.048 | 2.29 ± 0.04 |
| TAGKTSVKSARTSTRGR [SNF2] | 3.44 ± 0.058 | 3.37 ± 0.052 | 3.12 ± 0.042 | 3.206 ± 0.031 |
| TAGNWVASQTVKKVIEI [PRE2] | 3.18 ± 0.12 | 3.35 ± 0.084 | 2.77 ± 0.069 | 3.23 ± 0.081 |
| TAIAHSIREQVHMYHKS [SNF5] | 1.89 ± 0.044 | 1.92 ± 0.047 | 2.23 ± 0.069 | 2.12 ± 0.044 |
| TAIDKNGNITYSEEPRE [FAS2] | 2.87 ± 0.069 | 3.29 ± 0.066 | 3.12 ± 0.076 | 3.15 ± 0.073 |
| TASSLAHDYNNDQDMFT [YML103C/NUP188] | 3.19 ± 0.067 | 3.04 ± 0.063 | 3.17 ± 0.046 | 3.12 ± 0.055 |
| TAVAFWSWDIAVDNCAI [HRT1] | 1.33 ± 0.07 | 1.49 ± 0.067 | 1.52 ± 0.12 | 1.55 ± 0.043 |
| TCAVGVKGKNCVVLGCE [PRE6] |  |  |  | 3.42 ± 0.24 |
| TCILHGPVAAQFTKVID [FAS1] | 1.73 ± 0.064 | 2.25 ± 0.048 | 1.94 ± 0.081 | 1.98 ± 0.047 |
| TCVAKKGIAKEHAKWGP [RPB3] | 3.31 ± 0.07 | 3.28 ± 0.08 | 3.21 ± 0.07 | 3.16 ± 0.047 |

| Sequence | protein stability index (doa10∆) | protein stability index (pdr5∆) | protein stability index (san1∆) | protein stability index (ubr1∆) |
| --- | --- | --- | --- | --- |
| TDAGVLALKLELLDFLT [YJL039C/NUP192] | 2.84 ± 0.061 | 2.98 ± 0.078 | 2.96 ± 0.052 | 3.02 ± 0.046 |
| TDGDSILYYDVLFITPD [BRR2] | 2.47 ± 0.068 | 2.5 ± 0.064 | 2.54 ± 0.068 | 2.94 ± 0.051 |
| TDGELDIEFINSLLTIV [RPC34] | 2.78 ± 0.095 | 2.68 ± 0.14 | 2.4 ± 0.092 | 2.81 ± 0.091 |
| TDLHLPKKEYDDDAVRR [NSL1] | 1.99 ± 0.13 | 2.25 ± 0.12 | 1.42 ± 0.24 | 3.13 ± 0.11 |
| TDLMSIVQELLDKNLIK [RPC34] | 3.39 ± 0.21 | 2.74 ± 0.17 |  | 3.15 ± 0.14 |
| TDLRFQSSAIGALQESV [HHT1] | 1.32 ± 0.13 | 1.41 ± 0.13 | 1.32 ± 0.17 | 1.32 ± 0.23 |
| TDRLSTTQRRYEKAQKD [SMC1] | 3.33 ± 0.14 | 3.23 ± 0.095 | 2.63 ± 0.14 |  |
| TDVLEISKQRTFAVILF [YMR129W/POM152] | 1.93 ± 0.056 | 2.52 ± 0.054 | 2.41 ± 0.058 | 2.21 ± 0.041 |
| TDYLYRRLHDENLMVQR [YCS4] | 2.44 ± 0.089 | 2.08 ± 0.063 | 2.45 ± 0.067 | 2.38 ± 0.076 |
| TEAGFFAIRDDRDHINP [RPT4] | 2.49 ± 0.08 | 2.99 ± 0.072 | 3.12 ± 0.058 | 3.27 ± 0.045 |
| TEEELQAAVPDNAEDDS [BRN1] | 3.2 ± 0.094 | 3.14 ± 0.089 | 3.05 ± 0.083 | 3.02 ± 0.055 |
| TEELQTQYATSQKTKTI [SMC2] | 3.5 ± 0.24 | 3.19 ± 0.14 | 3.11 ± 0.23 | 3.18 ± 0.093 |
| TEHSKVTRFDEKQIEEL [SRB6] | 3.2 ± 0.14 | 3.26 ± 0.086 | 3.11 ± 0.081 | 3.26 ± 0.07 |
| TEKLSPLASEESLTNSN [YGL100W/SEH1] | 3.36 ± 0.13 | 3.25 ± 0.14 | 3.12 ± 0.099 | 3.32 ± 0.075 |
| TELMNRSPLVTPMDESS [SRP72] | 2.52 ± 0.071 | 2.58 ± 0.07 | 3.03 ± 0.076 | 2.59 ± 0.062 |
| TENAIEEKVIERAAQKL [ISW2] | 2.61 ± 0.095 | 2.74 ± 0.17 |  | 2.79 ± 0.051 |
| TENDIKALQSIGQLIGE [RPT4] | 3.21 ± 0.082 | 3.06 ± 0.095 | 2.74 ± 0.099 | 3.23 ± 0.045 |
| TEQQIEVPEGVTVSIKS [RPL9A] | 2.46 ± 0.069 | 2.3 ± 0.051 | 1.99 ± 0.073 | 2.85 ± 0.043 |
| TESNELIQKLQNSANNN [IRR1] | 2.93 ± 0.11 | 3.02 ± 0.082 | 3.24 ± 0.053 | 3.09 ± 0.17 |
| TFDGIRMSSEEVNSLLL [GRR1] | 3.03 ± 0.099 | 3.04 ± 0.15 | 3.14 ± 0.15 | 2.92 ± 0.074 |
| TFEKHDRVEDICERIFE [RRI2] | 2.68 ± 0.12 | 3.05 ± 0.16 | 3.15 ± 0.23 |  |
| TFGTKHAADSQNNKPSF [YLR335W/NUP2] | 3.16 ± 0.22 |  | 3.18 ± 0.17 | 3.05 ± 0.2 |
| TFHDELNLKFKEKWPSL [YML103C/NUP188] | 3.23 ± 0.095 | 3.57 ± 0.2 | 2.81 ± 0.082 | 3.09 ± 0.098 |
| TFPPEVLARISPELSLQ [RRP43] | 2.32 ± 0.073 | 2.87 ± 0.11 | 2.53 ± 0.081 | 2.67 ± 0.071 |
| TFSWLNAELLDYLFHLL [YLR018C/POM34] | 1.64 ± 0.075 | 1.47 ± 0.039 | 1.46 ± 0.14 | 1.4 ± 0.044 |

From the supplement of paper PMC9732359
